Measurements from US20250154278A1 (JANUX THERAPEUTICS, published 2025).
Read-outs that look alike come from different tables or passages of the source.

T1: Human TROP2 full length, on tumor cells (HCT116, MDAMB231, NCI-H292) (human, UniProt P09758 31-323)
T1 sequence: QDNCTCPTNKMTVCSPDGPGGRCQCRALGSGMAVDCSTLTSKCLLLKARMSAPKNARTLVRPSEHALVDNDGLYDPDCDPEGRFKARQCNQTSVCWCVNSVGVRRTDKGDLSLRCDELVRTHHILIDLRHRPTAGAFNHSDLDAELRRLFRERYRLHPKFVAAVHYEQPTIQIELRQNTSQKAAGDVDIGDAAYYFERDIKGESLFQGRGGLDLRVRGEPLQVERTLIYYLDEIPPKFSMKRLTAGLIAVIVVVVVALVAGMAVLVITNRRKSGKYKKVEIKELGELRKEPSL

T2: Human TROP2 ECD (31-274 AA), biotinylated (human, UniProt P09758 31-274, biotinylated (site not stated))
T2 construct: the entry is already residues 31-274; also called Human TROP2-biotin; hTROP2-Biotin
T2 sequence: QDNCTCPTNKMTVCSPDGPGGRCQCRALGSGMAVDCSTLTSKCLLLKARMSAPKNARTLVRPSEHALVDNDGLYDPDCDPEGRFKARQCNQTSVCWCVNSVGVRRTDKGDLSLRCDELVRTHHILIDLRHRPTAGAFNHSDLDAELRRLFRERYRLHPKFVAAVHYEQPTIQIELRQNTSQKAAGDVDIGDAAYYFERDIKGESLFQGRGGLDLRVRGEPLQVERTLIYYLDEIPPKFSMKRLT

T3: Cynomolgus monkey TROP2 full length, on recombinant HEK293 cells (cynomolgus monkey, UniProt P09758 31-323 (human entry))
T3 chain: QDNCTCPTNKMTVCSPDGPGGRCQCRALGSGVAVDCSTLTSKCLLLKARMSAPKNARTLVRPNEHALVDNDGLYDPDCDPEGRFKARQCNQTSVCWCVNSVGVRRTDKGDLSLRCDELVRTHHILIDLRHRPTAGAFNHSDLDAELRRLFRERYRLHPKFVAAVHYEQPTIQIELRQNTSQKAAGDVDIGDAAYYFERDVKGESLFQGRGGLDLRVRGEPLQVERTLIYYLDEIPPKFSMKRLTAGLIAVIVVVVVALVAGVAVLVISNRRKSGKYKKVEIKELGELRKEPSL

T4: Cyno CD3 (Antigen was biotinylated for capture on neutravidin plates; the site of biotin and any tag are not stated.)
T4 construct: also called cynomolgus monkey CD3
T4 chain: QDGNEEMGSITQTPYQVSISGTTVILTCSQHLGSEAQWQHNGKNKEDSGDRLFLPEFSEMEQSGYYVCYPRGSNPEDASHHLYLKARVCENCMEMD


Tests used:
[1] = target: T1, Human TROP2 full length, on tumor cells …; assay: cell-based or functional assay
[2] = target: T5, human CD3 epsilon, biotinylated (human, UniProt P07766 23-126, limits assumed, biotinylated (site not stated)); assay: BLI, CD3e-biotin on sensor, 50 nM TCE
T5 construct: Printed in places as CD36, CD38, CD3c or CD3&; also called CD3e-bio; human CD3e-biotin
T5 sequence (P07766 23-126 limits assumed): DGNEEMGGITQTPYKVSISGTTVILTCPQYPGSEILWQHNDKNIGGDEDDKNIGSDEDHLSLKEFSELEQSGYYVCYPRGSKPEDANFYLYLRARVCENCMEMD

[3] = target: T2, Human TROP2 ECD (31-274 AA), …; assay: TROP2 binding ELISA, biotinylated TROP2 on neutravidin plates
[4] = target: T3, Cynomolgus monkey TROP2 full length, on …; assay: cell-based or functional assay
[5] = target: T1, Human TROP2 full length, on tumor cells …; assay: cell-based or functional assay; remark: listed apart in the source
[6] = target: T1, Human TROP2 full length, on tumor cells …; assay: cell-based or functional assay; remark: listed apart in the source
[7] = target: T4, Cyno CD3; assay: Cyno CD3 binding ELISA
[8] = target: T5, human CD3 epsilon, biotinylated; assay: CD3 binding ELISA

Binder | EC50 [3] | H292 Cytotox EC50 [1] | CynoTROP2 + HEK293 cells Cytotox EC50 [4] | H292 Cytotox EC50 [5] | also measured
TCE-36 (anti-CD3 scFv with N30Q, I109V, G172A, V231A; anti-TROP2 wt) (bispecific antibody) light: DIQLTQSPSSLSASVGDRVSITCKASQDVSIAVAWYQQKPGKAPKLLIYSASYRYTGVPDRFSGSGSGTDFTLTISSLQPEDFAVYYCQQHYITPLTFGAGTKVEIKRTVAAPSVFIFPPSDEQLKSGTASVVCLLNNFYPREAKVQWKVDNALQSGNSQESVTEQDSKDSTYSLSSTLTLSKADYEKHKVYACEVTHQGLSSPVTKSFNRGEC heavy: not shown | – | 2.1 pM | – | – | Kd [2]: 9110 pM; Response [2]: 0.931
TCE-35 (anti-CD3 scFv with P41S, A49G, N87S, L150F, T151S, G163R, P175A, K181T, T200V, A202D, L208I, G211N, L217I, S218T, V220A, P222A, E223D, A226S, E227D; … (bispecific antibody) light: DIQLTQSPSSLSASVGDRVSITCKASQDVSIAVAWYQQKPGKAPKLLIYSASYRYTGVPDRFSGSGSGTDFTLTISSLQPEDFAVYYCQQHYITPLTFGAGTKVEIKRTVAAPSVFIFPPSDEQLKSGTASVVCLLNNFYPREAKVQWKVDNALQSGNSQESVTEQDSKDSTYSLSSTLTLSKADYEKHKVYACEVTHQGLSSPVTKSFNRGEC heavy: EVQLVESGGGLVQPGGSLKLSCAASGFTFNKYAMNWVRQASGKGLEWVGRIRSKYNNYATYYADSVKDRFTISRDDSKNTAYLQMNSLKTEDTAVYYCVRHGNFGNSYISYWAYWGQGTLVTVSSGGGGSGGGGSGGGGSQTVVTQEPSFSVSPGGTVTLTCRSSTGAVTSGNYANWVQQTPGQAPRGLIGGTKFLAPGVPDRFSGSILGNKAALTITGAQADDESDYYCVLWYSNRWVFGGGTKLTVLGGGGSQVQLQQSGSELKKPGASVKVSCKASGYTFTNYGMNWVKQAPGQGLKWMGWINTYTGEPTYTDDFKGRFAFSLDTSVSTAYLQISSLKADDTAVYFCARGGFGSSYWYFDVWGQGSLVTVSSASTKGPSVFPLAPSSKSTSGGTAALGCLVKDYFPEPVTVSWNSGALTSGVHTFPAVLQSSGLYSLSSVVTVPSSSLGTQTYICNVNHKPSNTKVDKKVEPKSC | – | 0.5 pM | – | – | –
TCE-37 (anti-CD3 scFv wt, anti-TROP2 HC F108A) (bispecific antibody) light: DIQLTQSPSSLSASVGDRVSITCKASQDVSIAVAWYQQKPGKAPKLLIYSASYRYTGVPDRFSGSGSGTDFTLTISSLQPEDFAVYYCQQHYITPLTFGAGTKVEIKRTVAAPSVFIFPPSDEQLKSGTASVVCLLNNFYPREAKVQWKVDNALQSGNSQESVTEQDSKDSTYSLSSTLTLSKADYEKHKVYACEVTHQGLSSPVTKSFNRGEC heavy: not shown | 1150 pM | – | 0.2 pM | 5 pM | HCT116 Cytotox EC50 [6]: 109 pM; EC50 [7]: 184 pM
TCE-46 (bispecific antibody, also called anti-CD3 scFv (F240A) + linker + anti-TROP2 (D109A) HC; anti-TROP2 LC wt) light chain (anti-TROP2 LC wt): DIQLTQSPSSLSASVGDRVSITCKASQDVSIAVAWYQQKPGKAPKLLIYSASYRYTGVPDRFSGSGSGTDFTLTISSLQPEDFAVYYCQQHYITPLTFGAGTKVEIKRTVAAPSVFIFPPSDEQLKSGTASVVCLLNNFYPREAKVQWKVDNALQSGNSQESVTEQDSKDSTYSLSSTLTLSKADYEKHKVYACEVTHQGLSSPVTKSFNRGEC heavy chain (anti-CD3 scFv F240A + linker + anti-TROP2 D109A HC): not shown | – | – | – | – | EC50 [8]: 1100 pM

The next lines start with results.

EC50 [3] | Binder | H292 Cytotox EC50 [1] | CynoTROP2 + HEK293 cells Cytotox EC50 [4] | H292 Cytotox EC50 [5] | also measured
1280 pM | TCE-38 (anti-CD3 scFv H101A, anti-TROP2 HC F108A) (bispecific antibody) light: DIQLTQSPSSLSASVGDRVSITCKASQDVSIAVAWYQQKPGKAPKLLIYSASYRYTGVPDRFSGSGSGTDFTLTISSLQPEDFAVYYCQQHYITPLTFGAGTKVEIKRTVAAPSVFIFPPSDEQLKSGTASVVCLLNNFYPREAKVQWKVDNALQSGNSQESVTEQDSKDSTYSLSSTLTLSKADYEKHKVYACEVTHQGLSSPVTKSFNRGEC heavy: not shown | – | – | – | –
1070 pM | TCE-43 (anti-CD3 scFv wt, anti-TROP2 HC D109A) (bispecific antibody) light: DIQLTQSPSSLSASVGDRVSITCKASQDVSIAVAWYQQKPGKAPKLLIYSASYRYTGVPDRFSGSGSGTDFTLTISSLQPEDFAVYYCQQHYITPLTFGAGTKVEIKRTVAAPSVFIFPPSDEQLKSGTASVVCLLNNFYPREAKVQWKVDNALQSGNSQESVTEQDSKDSTYSLSSTLTLSKADYEKHKVYACEVTHQGLSSPVTKSFNRGEC heavy: not shown | – | 0.1 pM | 1 pM | –
